Results on 1 molecule are retold here after article PMC2424174 (2008).

Where no end group is shown, it is not given here. Ahx = NCCCCCC(=O)O

For assay [1], the target named is Nucleolin (cell surface, HUVECs) (Homo sapiens, UniProt P19338). In words: iodinated HB-19 cell binding displaced by unlabeled HB-19.
Assay [2] has as its target Nucleolin (cell surface, MDA-MB-231 cells) (Homo sapiens, UniProt P19338). The assay is described as above.

One may read the Kd as the equilibrium constant for the complex coming apart. A lower Kd goes with higher affinity.

Chain of Nucleolin (cell surface, MDA-MB-231 cells) (P19338 2-710): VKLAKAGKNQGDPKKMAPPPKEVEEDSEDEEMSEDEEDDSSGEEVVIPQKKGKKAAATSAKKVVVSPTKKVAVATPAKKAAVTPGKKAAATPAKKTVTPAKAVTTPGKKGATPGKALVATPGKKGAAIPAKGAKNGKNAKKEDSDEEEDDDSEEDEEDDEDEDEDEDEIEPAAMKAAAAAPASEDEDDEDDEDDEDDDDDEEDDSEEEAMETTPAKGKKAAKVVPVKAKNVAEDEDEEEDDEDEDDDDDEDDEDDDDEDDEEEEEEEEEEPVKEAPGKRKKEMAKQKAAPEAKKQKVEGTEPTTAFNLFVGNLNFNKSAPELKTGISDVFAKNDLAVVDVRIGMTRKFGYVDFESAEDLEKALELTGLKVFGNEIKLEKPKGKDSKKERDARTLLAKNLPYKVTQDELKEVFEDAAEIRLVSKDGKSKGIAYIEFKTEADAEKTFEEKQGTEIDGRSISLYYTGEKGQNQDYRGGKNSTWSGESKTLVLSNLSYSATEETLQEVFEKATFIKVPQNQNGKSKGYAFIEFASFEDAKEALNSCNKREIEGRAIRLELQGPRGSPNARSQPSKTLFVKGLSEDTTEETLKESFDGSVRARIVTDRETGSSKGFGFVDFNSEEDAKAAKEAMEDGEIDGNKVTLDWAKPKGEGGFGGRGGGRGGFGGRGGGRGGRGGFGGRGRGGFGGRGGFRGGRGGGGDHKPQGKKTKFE
Chain of Nucleolin (cell surface, HUVECs) (P19338 2-710): as above

B1: HB-19 pseudopeptide (peptide)
chain: KKKGPKEK-{Ahx-NH2}
modifications: also: pentavalent Lys-psi(CH2N)-Pro-Arg on template, attachment places not given here, reduced psi(CH2N) bond Lys-Pro
Regarding B1, the Kd in assay [1] amounted to 825 nM; in assay [2], 312 nM.
